Columns and labels:
Assay type in all cases: in vivo
Details in all cases: 7 DAT, number of plants of 24 per genotype, grades
[1] = test system: Arabidopsis thaliana T1 plants; assay: oxyfluorfen tolerance of transgenic Arabidopsis thaliana T1 plants (spray, grade of pesticide damage)
Procedure, shortened: (§1)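 Herbicide rates in g ai/ha are as follows: oxyfluorfen 180 or 720, saflufenacil 25 or 100, flumioxazin 60 or 240, sulfentrazone 450 or 900, each against a water control. Sprays go onto PPO-transgenic T1 plants at 18 days. At 7 DAT, leaf-area injury is graded 0–3, with grades 0–1 counted as highly resistant.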

[2] = test system: Arabidopsis thaliana T1 plants; assay: saflufenacil tolerance of transgenic Arabidopsis thaliana T1 plants (spray, grade of pesticide damage)
Procedure, shortened: as §1

[3] = test system: Arabidopsis thaliana T1 plants; assay: flumioxazin tolerance of transgenic Arabidopsis thaliana T1 plants (spray, grade of pesticide damage)
Procedure, shortened: as §1

[4] = test system: Arabidopsis thaliana T1 plants; assay: sulfentrazone tolerance of transgenic Arabidopsis thaliana T1 plants (spray, grade of pesticide damage)
Procedure, shortened: as §1

| Molecule | The grade of pesticide damage/plant: grade 0 ([1]; oxyfluorfen 180 g ai/ha (1×)) | The grade of pesticide damage/plant: grade 1 ([1]; oxyfluorfen 180 g ai/ha (1×)) | The grade of pesticide damage/plant: grade 2 ([1]; oxyfluorfen 180 g ai/ha (1×)) | The grade of pesticide damage/plant: grade 3 ([1]; oxyfluorfen 180 g ai/ha (1×)) | The grade of pesticide damage/plant: grade 0 ([1]; oxyfluorfen 720 g ai/ha (4×)) | The grade of pesticide damage/plant: grade 1 ([1]; oxyfluorfen 720 g ai/ha (4×)) | The grade of pesticide damage/plant: grade 2 ([1]; oxyfluorfen 720 g ai/ha (4×)) | The grade of pesticide damage/plant: grade 3 ([1]; oxyfluorfen 720 g ai/ha (4×)) | The grade of pesticide damage/plant: grade 0 ([2]; saflufenacil 25 g ai/ha (1×)) | The grade of pesticide damage/plant: grade 1 ([2]; saflufenacil 25 g ai/ha (1×)) | The grade of pesticide damage/plant: grade 2 ([2]; saflufenacil 25 g ai/ha (1×)) | The grade of pesticide damage/plant: grade 3 ([2]; saflufenacil 25 g ai/ha (1×)) | The grade of pesticide damage/plant: grade 0 ([2]; saflufenacil 100 g ai/ha (4×)) | The grade of pesticide damage/plant: grade 1 ([2]; saflufenacil 100 g ai/ha (4×)) | The grade of pesticide damage/plant: grade 2 ([2]; saflufenacil 100 g ai/ha (4×)) | The grade of pesticide damage/plant: grade 3 ([2]; saflufenacil 100 g ai/ha (4×)) | The grade of pesticide damage/plant: grade 0 ([3]; flumioxazin 60 g ai/ha (1×)) | The grade of pesticide damage/plant: grade 1 ([3]; flumioxazin 60 g ai/ha (1×)) | The grade of pesticide damage/plant: grade 2 ([3]; flumioxazin 60 g ai/ha (1×)) | The grade of pesticide damage/plant: grade 3 ([3]; flumioxazin 60 g ai/ha (1×)) | further results |
| --- | --- | --- | --- | --- | --- | --- | --- | --- | --- | --- | --- | --- | --- | --- | --- | --- | --- | --- | --- | --- | --- |
| PPO11A: nucleotide sequence encoding microbial protoporphyrinogen oxidase PPO11 (SEQ ID NO:11), Arabidopsis thaliana/soybean common codon usage bias (nucleic acid, The nucleotide sequence of PPO11A) DNA: ATGCAAAAAGCTCTTTTCCTCTACAGTTCAAGAGAAGGACAAACAAAGAAAATACTCAACTACATCAAGGAAGAACTATCAGAGTTTGATTGTGAGCTTGCTGATCTTCATCAGATTGAAGATATTGATTTAGCCTTGTATGATCGAGTATTAATAGGCGCAAGCATCCGGTATGGTCACTTGAACAAAAAGCTTTATCAGTTTATTGAGAAGCATGCTGAGCAACTTGCGCTGGCAAAAGCAGCTTTCTTCTGCGTGAATCTCACTGCAAGGAAAGAGGCTCAAGGAAAAGATACTCCGGAAGGTTCTGTTTACATAAAGACGTTTCTGTCCAAGTCTGCTTGGCAACCAAAGTTGATTGGAGTTTTTGCTGGTGCCCTATACTATCCTCGTTACCATTTCTTTGACAAAGTGATGATTAGATTCATCATGTCTTTAACCGGGGGAGAAACTGACACATCAAAAGAAGTTGAGTATACAAATTGGCAGAAAGTCTCGTTGTTTAGTGACAATTTCAAGAAGATGTGA | 24 plant | 0 plant | 0 plant | 0 plant | 21 plant | 3 plant | 0 plant | 0 plant | 24 plant | 0 plant | 0 plant | 0 plant | 0 plant | 24 plant | 0 plant | 0 plant | 24 plant | 0 plant | 0 plant | 0 plant | The grade of pesticide damage/plant: grade 0 ([3]; flumioxazin 240 g ai/ha (4×)): 20 plant; The grade of pesticide damage/plant: grade 1 ([3]; flumioxazin 240 g ai/ha (4×)): 4 plant; The grade of pesticide damage/plant: grade 2 ([3]; flumioxazin 240 g ai/ha (4×)): 0 plant; The grade of pesticide damage/plant: grade 3 ([3]; flumioxazin 240 g ai/ha (4×)): 0 plant; The grade of pesticide: grade 0 ([4]; sulfentrazone 450 g ai/ha (1×)): 24; The grade of pesticide: grade 1 ([4]; sulfentrazone 450 g ai/ha (1×)): 0; The grade of pesticide: grade 2 ([4]; sulfentrazone 450 g ai/ha (1×)): 0; The grade of pesticide: grade 3 ([4]; sulfentrazone 450 g ai/ha (1×)): 0; The grade of pesticide: grade 0 ([4]; sulfentrazone 900 g ai/ha (2×)): 19; The grade of pesticide: grade 1 ([4]; sulfentrazone 900 g ai/ha (2×)): 5; The grade of pesticide: grade 2 ([4]; sulfentrazone 900 g ai/ha (2×)): 0; The grade of pesticide: grade 3 ([4]; sulfentrazone 900 g ai/ha (2×)): 0 |
| PPO10A: nucleotide sequence encoding microbial protoporphyrinogen oxidase PPO10 (SEQ ID NO:10), Arabidopsis thaliana/soybean common codon usage bias (nucleic acid, The nucleotide sequence of PPO10A) DNA: ATGAAAGCTCTCTTTCTGTACTCGTCTCAAGAAGGACAGACAAGGAAGATTATAGAGAGAATCGCCCAGCAAATGCCGGAGTATGATTGTGATATTCAAGATCTTCATCAAGTAAGCGACATTGCATTAGCTGATTATGACAAGATCCTAATAGGGGCCAGTATCCGATATGGAAGATTGAATGATAAACTATATCAATTTATTCAGAGATATCTTCCCGATCTCCGCTCCAACAAAGCAGCTTTCTTCTGCGTCAATCTTACGGCGAGAAAGGAAGAACAAGGAAAAGACACCCCAGAAGGTTCTGTTTACATCCAGACTTTCTTGAAGAAATCACCATGGCAACCTGAGAGGATTGCAGTGTTTGCTGGTGCTCTTTACTATCCTCGTTACAGATGGTTTGATAAGATGATGATTCGGTTAATAATGACTTTGACCGGCGGTGAAACTGATACATCAAAAGAAGTTGAGTACACAAATTGGAACAAGGTTTCTCAGTTTGCGGAGCAGTTCCGTAACTGGTGA | 24 plant | 0 plant | 0 plant | 0 plant | 20 plant | 4 plant | 0 plant | 0 plant | 24 plant | 0 plant | 0 plant | 0 plant | 0 plant | 24 plant | 0 plant | 0 plant | 24 plant | 0 plant | 0 plant | 0 plant | The grade of pesticide damage/plant: grade 0 ([3]; flumioxazin 240 g ai/ha (4×)): 24 plant; The grade of pesticide damage/plant: grade 1 ([3]; flumioxazin 240 g ai/ha (4×)): 0 plant; The grade of pesticide damage/plant: grade 2 ([3]; flumioxazin 240 g ai/ha (4×)): 0 plant; The grade of pesticide damage/plant: grade 3 ([3]; flumioxazin 240 g ai/ha (4×)): 0 plant; The grade of pesticide: grade 0 ([4]; sulfentrazone 450 g ai/ha (1×)): 24; The grade of pesticide: grade 1 ([4]; sulfentrazone 450 g ai/ha (1×)): 0; The grade of pesticide: grade 2 ([4]; sulfentrazone 450 g ai/ha (1×)): 0; The grade of pesticide: grade 3 ([4]; sulfentrazone 450 g ai/ha (1×)): 0; The grade of pesticide: grade 0 ([4]; sulfentrazone 900 g ai/ha (2×)): 20; The grade of pesticide: grade 1 ([4]; sulfentrazone 900 g ai/ha (2×)): 4; The grade of pesticide: grade 2 ([4]; sulfentrazone 900 g ai/ha (2×)): 0; The grade of pesticide: grade 3 ([4]; sulfentrazone 900 g ai/ha (2×)): 0 |
| PPO13A: nucleotide sequence encoding microbial protoporphyrinogen oxidase PPO13 (SEQ ID NO:13), Arabidopsis thaliana/soybean common codon usage bias (nucleic acid, The nucleotide sequence of PPO13A) DNA: ATGGCTAAAGCTCTTTTCCTGTACTCATCTAGAGAAGGACAAACAAAGAAGATTCTTCATTACATAGACGAGAAGTTAACTGGGTTTGAGTGTGAACTCGTTGATTTGCACAATGTCGAAACTATTGATTTTTCTCAGTATGATAGAGTCTTAATTGGAGCGTCCATACGATATGGTCATCTCAACAAGAAATTATATCAGTTTATCGACCGTAACCTGAACCAGCTAGAGCAAAGCAAGGTAGCTTTCTTCTGCGTGAATCTCACCGCACGGAAAGAGGATCAAGGAAAAGATACTCCTGAAGGCTCAGCTTACATAAGGAAGTTTCTTATCAAATCGCCTTGGAAACCGACATTGATTGGTGTTTTCGCAGGTGCACTTTACTATCCAAGATATGGGTGGTTTGATAAAACAATGATCAAATTCATCATGAGTATGACTGGTGGAGAAACCGACACGACCAAGGAAGTTGAGTACACAAATTGGGAAAAAGTGGCCTTGTTTGCTGATAAGTTCAAGGAGCTATGA | 24 plant | 0 plant | 0 plant | 0 plant | 18 plant | 6 plant | 0 plant | 0 plant | 24 plant | 0 plant | 0 plant | 0 plant | 0 plant | 24 plant | 0 plant | 0 plant | 24 plant | 0 plant | 0 plant | 0 plant | The grade of pesticide damage/plant: grade 0 ([3]; flumioxazin 240 g ai/ha (4×)): 19 plant; The grade of pesticide damage/plant: grade 1 ([3]; flumioxazin 240 g ai/ha (4×)): 5 plant; The grade of pesticide damage/plant: grade 2 ([3]; flumioxazin 240 g ai/ha (4×)): 0 plant; The grade of pesticide damage/plant: grade 3 ([3]; flumioxazin 240 g ai/ha (4×)): 0 plant; The grade of pesticide: grade 0 ([4]; sulfentrazone 450 g ai/ha (1×)): 24; The grade of pesticide: grade 1 ([4]; sulfentrazone 450 g ai/ha (1×)): 0; The grade of pesticide: grade 2 ([4]; sulfentrazone 450 g ai/ha (1×)): 0; The grade of pesticide: grade 3 ([4]; sulfentrazone 450 g ai/ha (1×)): 0; The grade of pesticide: grade 0 ([4]; sulfentrazone 900 g ai/ha (2×)): 23; The grade of pesticide: grade 1 ([4]; sulfentrazone 900 g ai/ha (2×)): 1; The grade of pesticide: grade 2 ([4]; sulfentrazone 900 g ai/ha (2×)): 0; The grade of pesticide: grade 3 ([4]; sulfentrazone 900 g ai/ha (2×)): 0 |

Source: patent US20240200091A1, “USE OF PROTOPORPHYRINOGEN OXIDASE” (BEIJING DABEINONG BIOTECHNOLOGY CO., LTD., priority 2021, published 2024)
